# Assays:
# [1] = tested on: J2 IgG LC Y31F, PDB:9OJV_1+PDB:9OJV_2; experiment: BLI steady state; conditions: 100 mM KCl; kinetic Kd 130 ± 20 nM; BLI: 25 mM Tris-HCl pH 7.5, 100-400 mM KCl (per row), 2 mM MgCl2, 25 C, IgG immobilized on Protein A; FP: 25 mM Tris-HCl pH 7.5, 100 mM KCl, 2 mM MgCl2, 21 C
# [2] = tested on: J2 IgG HC Y52F, PDB:9OJV_1+PDB:9OJV_2; experiment: BLI steady state; conditions: 100 mM KCl; kinetic Kd 210 ± 20 nM; BLI: 25 mM Tris-HCl pH 7.5, 100-400 mM KCl (per row), 2 mM MgCl2, 25 C, IgG immobilized on Protein A; FP: 25 mM Tris-HCl pH 7.5, 100 mM KCl, 2 mM MgCl2, 21 C
# [3] = tested on: J2 IgG LC Y31A, PDB:9OJV_1+PDB:9OJV_2; experiment: BLI steady state; conditions: 100 mM KCl; kinetic Kd 207 ± 21 nM; BLI: 25 mM Tris-HCl pH 7.5, 100-400 mM KCl (per row), 2 mM MgCl2, 25 C, IgG immobilized on Protein A; FP: 25 mM Tris-HCl pH 7.5, 100 mM KCl, 2 mM MgCl2, 21 C
# [4] = tested on: J2 IgG HC Y54A, PDB:9OJV_1+PDB:9OJV_2; experiment: BLI steady state; conditions: 100 mM KCl; kinetic Kd 270 ± 10 nM; BLI: 25 mM Tris-HCl pH 7.5, 100-400 mM KCl (per row), 2 mM MgCl2, 25 C, IgG immobilized on Protein A; FP: 25 mM Tris-HCl pH 7.5, 100 mM KCl, 2 mM MgCl2, 21 C
# [5] = tested on: J2 IgG HC Y54F, PDB:9OJV_1+PDB:9OJV_2; experiment: BLI steady state; conditions: 100 mM KCl; kinetic Kd 250 ± 40 nM; BLI: 25 mM Tris-HCl pH 7.5, 100-400 mM KCl (per row), 2 mM MgCl2, 25 C, IgG immobilized on Protein A; FP: 25 mM Tris-HCl pH 7.5, 100 mM KCl, 2 mM MgCl2, 21 C
# [6] = tested on: J2 IgG LC Y38F, PDB:9OJV_1+PDB:9OJV_2; experiment: BLI steady state; conditions: 100 mM KCl; kinetic Kd 83 ± 14 nM; BLI: 25 mM Tris-HCl pH 7.5, 100-400 mM KCl (per row), 2 mM MgCl2, 25 C, IgG immobilized on Protein A; FP: 25 mM Tris-HCl pH 7.5, 100 mM KCl, 2 mM MgCl2, 21 C
# [7] = tested on: J2 IgG HC A30P, PDB:9OJV_1+PDB:9OJV_2; experiment: BLI steady state; conditions: 100 mM KCl; kinetic Kd 28 ± 14 nM; BLI: 25 mM Tris-HCl pH 7.5, 100-400 mM KCl (per row), 2 mM MgCl2, 25 C, IgG immobilized on Protein A; FP: 25 mM Tris-HCl pH 7.5, 100 mM KCl, 2 mM MgCl2, 21 C
# [8] = tested on: J2 IgG WT, PDB:9OJV_1+PDB:9OJV_2; experiment: BLI steady state; conditions: 100 mM KCl; kinetic Kd 150 ± 80 nM; BLI: 25 mM Tris-HCl pH 7.5, 100-400 mM KCl (per row), 2 mM MgCl2, 25 C, IgG immobilized on Protein A; FP: 25 mM Tris-HCl pH 7.5, 100 mM KCl, 2 mM MgCl2, 21 C
# [9] = tested on: J2 IgG HC Y50F, PDB:9OJV_1+PDB:9OJV_2; experiment: BLI steady state; conditions: 100 mM KCl; kinetic Kd 94 ± 49 nM; BLI: 25 mM Tris-HCl pH 7.5, 100-400 mM KCl (per row), 2 mM MgCl2, 25 C, IgG immobilized on Protein A; FP: 25 mM Tris-HCl pH 7.5, 100 mM KCl, 2 mM MgCl2, 21 C
# [10] = biological target: J2 IgG heavy chain (HC-TEV-His8) A30P;J2 IgG light chain (Mus musculus;Mus musculus, UniProt ; ;, A30P|); experiment: BLI; 100 mM KCl; BLI: 25 mM Tris-HCl pH 7.5, 2 mM MgCl2, KCl 100 mM (6-20 bp and mutants), 200 mM (30 bp) or 400 mM (40, 50 bp), 25 C; IgG immobilised on Protein A probes; conditions: protein: recombinant;recombinant; tags: His8 (C-term);; chain copies: 2;2; blunt
# Sequence of J2 IgG heavy chain (HC-TEV-His8) A30P;J2 IgG light chain (chain, as listed by the source A30P| | A30P A30P, chain 1 of 2): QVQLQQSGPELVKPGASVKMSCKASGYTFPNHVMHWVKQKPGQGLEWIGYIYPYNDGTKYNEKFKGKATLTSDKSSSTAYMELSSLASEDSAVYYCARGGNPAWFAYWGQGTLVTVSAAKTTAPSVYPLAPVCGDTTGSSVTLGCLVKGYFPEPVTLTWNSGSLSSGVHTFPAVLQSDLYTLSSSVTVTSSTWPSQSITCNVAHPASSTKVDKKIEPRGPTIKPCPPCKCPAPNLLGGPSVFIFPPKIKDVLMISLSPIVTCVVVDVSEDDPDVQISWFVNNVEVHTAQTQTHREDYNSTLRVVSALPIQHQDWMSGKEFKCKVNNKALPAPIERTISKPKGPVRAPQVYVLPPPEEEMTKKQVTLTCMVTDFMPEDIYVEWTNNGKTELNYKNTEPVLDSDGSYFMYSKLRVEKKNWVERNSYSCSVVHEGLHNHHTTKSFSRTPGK
# Sequence of J2 IgG heavy chain (HC-TEV-His8) A30P;J2 IgG light chain (chain, as listed by the source A30P| | A30P A30P, chain 2 of 2): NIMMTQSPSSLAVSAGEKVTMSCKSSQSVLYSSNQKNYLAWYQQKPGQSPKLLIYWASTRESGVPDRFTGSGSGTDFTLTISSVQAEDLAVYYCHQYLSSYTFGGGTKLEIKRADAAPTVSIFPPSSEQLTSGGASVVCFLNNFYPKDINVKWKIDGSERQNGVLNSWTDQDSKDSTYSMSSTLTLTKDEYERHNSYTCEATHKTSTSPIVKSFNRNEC
# [11] = biological target: J2 IgG heavy chain (HC-TEV-His8) Y52F;J2 IgG light chain (Mus musculus;Mus musculus, UniProt ; ;, Y52F|); experiment: as above; conditions: protein: recombinant;recombinant; tags: His8 (C-term);; chain copies: 2;2; blunt
# Sequence of J2 IgG heavy chain (HC-TEV-His8) Y52F;J2 IgG light chain (chain, as listed by the source Y52F| | Y52F Y52F, chain 1 of 2): as the sequence (chain, as listed by the source A30P| | A30P A30P, chain 1 of 2) above, with P30A, Y52F counted along it
# Sequence of J2 IgG heavy chain (HC-TEV-His8) Y52F;J2 IgG light chain (chain, as listed by the source Y52F| | Y52F Y52F, chain 2 of 2): as the sequence (chain, as listed by the source A30P| | A30P A30P, chain 2 of 2) above
# [12] = biological target: J2 IgG heavy chain (HC-TEV-His8) Y50F;J2 IgG light chain (Mus musculus;Mus musculus, UniProt ; ;, Y50F|); experiment: as above; conditions: protein: recombinant;recombinant; tags: His8 (C-term);; chain copies: 2;2; blunt
# Sequence of J2 IgG heavy chain (HC-TEV-His8) Y50F;J2 IgG light chain (chain, as listed by the source Y50F| | Y50F Y50F, chain 1 of 2): as the sequence (chain, as listed by the source A30P| | A30P A30P, chain 1 of 2) above, with P30A, Y50F counted along it
# Sequence of J2 IgG heavy chain (HC-TEV-His8) Y50F;J2 IgG light chain (chain, as listed by the source Y50F| | Y50F Y50F, chain 2 of 2): as the sequence (chain, as listed by the source A30P| | A30P A30P, chain 2 of 2) above
# [13] = biological target: J2 IgG heavy chain (HC-TEV-His8) Y54F;J2 IgG light chain (Mus musculus;Mus musculus, UniProt ; ;, Y54F|); experiment: as above; conditions: protein: recombinant;recombinant; tags: His8 (C-term);; chain copies: 2;2; blunt
# Sequence of J2 IgG heavy chain (HC-TEV-His8) Y54F;J2 IgG light chain (chain, as listed by the source Y54F| | Y54F Y54F, chain 1 of 2): as the sequence (chain, as listed by the source A30P| | A30P A30P, chain 1 of 2) above, with P30A, Y54F counted along it
# Sequence of J2 IgG heavy chain (HC-TEV-His8) Y54F;J2 IgG light chain (chain, as listed by the source Y54F| | Y54F Y54F, chain 2 of 2): as the sequence (chain, as listed by the source A30P| | A30P A30P, chain 2 of 2) above
# [14] = biological target: J2 IgG light chain Y31F;J2 IgG heavy chain (HC-TEV-His8) (Mus musculus;Mus musculus, UniProt ; ;, Y31F|); experiment: as above; conditions: protein: recombinant;recombinant; tags: His8 (C-term);; chain copies: 2;2; blunt
# Sequence of J2 IgG light chain Y31F;J2 IgG heavy chain (HC-TEV-His8) (chain, as listed by the source Y31F| | Y31F Y31F, chain 1 of 2): as the sequence (chain, as listed by the source A30P| | A30P A30P, chain 2 of 2) above, with Y31F counted along it
# Sequence of J2 IgG light chain Y31F;J2 IgG heavy chain (HC-TEV-His8) (chain, as listed by the source Y31F| | Y31F Y31F, chain 2 of 2): as the sequence (chain, as listed by the source A30P| | A30P A30P, chain 1 of 2) above, with P30A counted along it
# [15] = biological target: J2 IgG heavy chain (HC-TEV-His8) Y54A;J2 IgG light chain (Mus musculus;Mus musculus, UniProt ; ;, Y54A|); experiment: as above; conditions: protein: recombinant;recombinant; tags: His8 (C-term);; chain copies: 2;2; blunt
# Sequence of J2 IgG heavy chain (HC-TEV-His8) Y54A;J2 IgG light chain (chain, as listed by the source Y54A| | Y54A Y54A, chain 1 of 2): as the sequence (chain, as listed by the source A30P| | A30P A30P, chain 1 of 2) above, with P30A, Y54A counted along it
# Sequence of J2 IgG heavy chain (HC-TEV-His8) Y54A;J2 IgG light chain (chain, as listed by the source Y54A| | Y54A Y54A, chain 2 of 2): as the sequence (chain, as listed by the source A30P| | A30P A30P, chain 2 of 2) above
# [16] = biological target: J2 IgG light chain Y31A;J2 IgG heavy chain (HC-TEV-His8) (Mus musculus;Mus musculus, UniProt ; ;, Y31A|); experiment: as above; conditions: protein: recombinant;recombinant; tags: His8 (C-term);; chain copies: 2;2; blunt
# Sequence of J2 IgG light chain Y31A;J2 IgG heavy chain (HC-TEV-His8) (chain, as listed by the source Y31A| | Y31A Y31A, chain 1 of 2): as the sequence (chain, as listed by the source A30P| | A30P A30P, chain 2 of 2) above, with Y31A counted along it
# Sequence of J2 IgG light chain Y31A;J2 IgG heavy chain (HC-TEV-His8) (chain, as listed by the source Y31A| | Y31A Y31A, chain 2 of 2): as the sequence (chain, as listed by the source A30P| | A30P A30P, chain 1 of 2) above, with P30A counted along it
# [17] = biological target: J2 IgG light chain Y38F;J2 IgG heavy chain (HC-TEV-His8) (Mus musculus;Mus musculus, UniProt ; ;, Y38F|); experiment: as above; conditions: protein: recombinant;recombinant; tags: His8 (C-term);; chain copies: 2;2; blunt
# Sequence of J2 IgG light chain Y38F;J2 IgG heavy chain (HC-TEV-His8) (chain, as listed by the source Y38F| | Y38F Y38F, chain 1 of 2): as the sequence (chain, as listed by the source A30P| | A30P A30P, chain 2 of 2) above, with Y38F counted along it
# Sequence of J2 IgG light chain Y38F;J2 IgG heavy chain (HC-TEV-His8) (chain, as listed by the source Y38F| | Y38F Y38F, chain 2 of 2): as the sequence (chain, as listed by the source A30P| | A30P A30P, chain 1 of 2) above, with P30A counted along it
# [18] = biological target: J2 IgG heavy chain (HC-TEV-His8);J2 IgG light chain (Mus musculus;Mus musculus, UniProt ; ;, |); experiment: as above; conditions: protein: recombinant;recombinant; tags: His8 (C-term);; chain copies: 2;2; blunt
# Sequence of J2 IgG heavy chain (HC-TEV-His8);J2 IgG light chain (chain, as listed by the source |, chain 1 of 2): as the sequence (chain, as listed by the source A30P| | A30P A30P, chain 1 of 2) above, with P30A counted along it
# Sequence of J2 IgG heavy chain (HC-TEV-His8);J2 IgG light chain (chain, as listed by the source |, chain 2 of 2): as the sequence (chain, as listed by the source A30P| | A30P A30P, chain 2 of 2) above
Molecule,Kd [1] [nM],Kd [2] [nM],Kd [3] [nM],Kd [4] [nM],Kd [5] [nM],Kd [6] [nM],Kd [7] [nM],Kd [8] [nM],Kd [9] [nM],Kd [10] [nM],Kd [11] [nM],Kd [12] [nM],Kd [13] [nM],Kd [14] [nM],Kd [15] [nM],Kd [16] [nM],Kd [17] [nM],Kd [18] [nM]
GUUGUAAAGAAAUAUAGGCU / AGCCUAUAUUUCUUUACAAC [20-bp dsRNA],360,220,940,300,710,150,120,120,430,,,,,,,,,
20-bp dsRNA (dsRNA) RNA 1: GUUGUAAAGAAGGUCAAUAU RNA 2: AUAUUGACCUUCUUUACAAC,,,,,,,,,,120 ± 20,220,430 ± 40,710 ± 170,360 ± 60,300 ± 30,940 ± 560,150 ± 20,120 ± 10

# From paper PMC12816604, “Structural basis of double-stranded RNA recognition by the J2 monoclonal antibody”
